The source of these data is IntAct's records for PubMed 25686249.

Test [1] has as its target atg12_mouse Atg12 (UniProt Q9CQY1).
Test [2] has as its target pdc6i_human PDCD6IP (UniProt Q8WUM4).

Sequence of Ubiquitin-like-conjugating enzyme ATG3 (Mus musculus), Q9CPX6 K243R (Q9CPX6 whole entry K243R): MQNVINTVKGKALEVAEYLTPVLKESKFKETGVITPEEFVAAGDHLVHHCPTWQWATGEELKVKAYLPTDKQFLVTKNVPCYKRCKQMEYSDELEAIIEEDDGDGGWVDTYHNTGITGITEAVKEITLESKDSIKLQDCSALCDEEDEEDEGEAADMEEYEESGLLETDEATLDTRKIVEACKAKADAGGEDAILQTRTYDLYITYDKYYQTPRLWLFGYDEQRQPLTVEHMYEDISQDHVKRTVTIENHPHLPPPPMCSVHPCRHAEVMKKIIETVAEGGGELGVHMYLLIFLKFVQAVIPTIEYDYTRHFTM
Sequence of atg12_mouse Atg12 (Q9CQY1 whole entry): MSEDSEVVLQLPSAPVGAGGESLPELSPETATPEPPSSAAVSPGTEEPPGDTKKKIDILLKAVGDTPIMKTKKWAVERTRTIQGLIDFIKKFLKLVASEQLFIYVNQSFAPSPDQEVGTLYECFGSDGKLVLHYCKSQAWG
Sequence of pdc6i_human PDCD6IP (Q8WUM4 whole entry): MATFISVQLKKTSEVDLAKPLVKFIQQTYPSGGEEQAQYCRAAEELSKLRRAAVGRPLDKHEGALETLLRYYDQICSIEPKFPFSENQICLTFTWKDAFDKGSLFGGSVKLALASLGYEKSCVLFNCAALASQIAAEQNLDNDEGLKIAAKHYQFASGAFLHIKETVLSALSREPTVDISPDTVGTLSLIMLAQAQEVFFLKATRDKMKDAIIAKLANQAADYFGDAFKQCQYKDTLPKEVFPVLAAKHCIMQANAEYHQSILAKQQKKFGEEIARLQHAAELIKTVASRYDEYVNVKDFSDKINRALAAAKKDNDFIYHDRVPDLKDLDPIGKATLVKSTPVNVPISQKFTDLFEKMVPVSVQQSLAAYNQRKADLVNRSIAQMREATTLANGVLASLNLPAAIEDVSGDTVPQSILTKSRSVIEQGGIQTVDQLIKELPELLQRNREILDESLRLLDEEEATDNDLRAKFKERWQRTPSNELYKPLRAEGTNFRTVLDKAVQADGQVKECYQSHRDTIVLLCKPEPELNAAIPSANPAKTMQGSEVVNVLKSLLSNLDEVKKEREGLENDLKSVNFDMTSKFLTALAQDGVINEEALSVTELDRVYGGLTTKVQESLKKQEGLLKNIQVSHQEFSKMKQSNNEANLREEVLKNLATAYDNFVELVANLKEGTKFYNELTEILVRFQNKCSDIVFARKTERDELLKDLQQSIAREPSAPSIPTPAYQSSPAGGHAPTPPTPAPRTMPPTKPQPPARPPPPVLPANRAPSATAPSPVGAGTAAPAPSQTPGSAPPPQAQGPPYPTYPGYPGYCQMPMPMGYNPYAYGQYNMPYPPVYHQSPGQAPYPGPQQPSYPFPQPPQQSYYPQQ

For the substance “Ubiquitin-like-conjugating enzyme ATG3 (Mus musculus), Q9CPX6 K243R”, the “effect of a mutation on the interaction” value in test [1] and in test [2] was “disrupting interaction strength” throughout.
